“Also recorded” adds a separate entry of the source.

This test has as its target CXCR4 (Homo sapiens, UniProt P61073). Put plainly: Competitive CXCR4 binding assay. To be noted: CHO cells stably transfected with CXCR4; 12G5 antibody competition.

Sequence of CXCR4 (P61073 whole entry): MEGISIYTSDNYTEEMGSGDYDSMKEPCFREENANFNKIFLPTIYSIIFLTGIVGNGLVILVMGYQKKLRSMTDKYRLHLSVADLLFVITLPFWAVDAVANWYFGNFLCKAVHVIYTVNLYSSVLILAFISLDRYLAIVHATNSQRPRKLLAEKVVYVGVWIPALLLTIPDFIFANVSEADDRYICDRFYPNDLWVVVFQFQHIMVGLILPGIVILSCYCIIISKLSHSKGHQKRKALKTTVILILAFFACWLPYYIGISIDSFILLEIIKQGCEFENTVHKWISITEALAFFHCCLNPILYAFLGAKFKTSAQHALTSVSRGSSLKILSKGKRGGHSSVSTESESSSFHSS

As to SDF-1α1–8 (KPVSLSYR) [ligand 19], the “CXCR4 binding activity (in words)” value was “very low CXCR4 binding affinity; also recorded: No binding”.

The values above are taken from paper PMC5498155 (Bioorganic & medicinal chemistry, 2016).
